# Data published in patent publication US20230340087A1.
# Target: Clostridium difficile toxin A (TcdA) (Clostridium difficile) (UniProt P16154)
# Assay: cell-based or functional assay
# Clostridium difficile toxin A (TcdA) (Clostridium difficile), sequence (P16154 whole entry): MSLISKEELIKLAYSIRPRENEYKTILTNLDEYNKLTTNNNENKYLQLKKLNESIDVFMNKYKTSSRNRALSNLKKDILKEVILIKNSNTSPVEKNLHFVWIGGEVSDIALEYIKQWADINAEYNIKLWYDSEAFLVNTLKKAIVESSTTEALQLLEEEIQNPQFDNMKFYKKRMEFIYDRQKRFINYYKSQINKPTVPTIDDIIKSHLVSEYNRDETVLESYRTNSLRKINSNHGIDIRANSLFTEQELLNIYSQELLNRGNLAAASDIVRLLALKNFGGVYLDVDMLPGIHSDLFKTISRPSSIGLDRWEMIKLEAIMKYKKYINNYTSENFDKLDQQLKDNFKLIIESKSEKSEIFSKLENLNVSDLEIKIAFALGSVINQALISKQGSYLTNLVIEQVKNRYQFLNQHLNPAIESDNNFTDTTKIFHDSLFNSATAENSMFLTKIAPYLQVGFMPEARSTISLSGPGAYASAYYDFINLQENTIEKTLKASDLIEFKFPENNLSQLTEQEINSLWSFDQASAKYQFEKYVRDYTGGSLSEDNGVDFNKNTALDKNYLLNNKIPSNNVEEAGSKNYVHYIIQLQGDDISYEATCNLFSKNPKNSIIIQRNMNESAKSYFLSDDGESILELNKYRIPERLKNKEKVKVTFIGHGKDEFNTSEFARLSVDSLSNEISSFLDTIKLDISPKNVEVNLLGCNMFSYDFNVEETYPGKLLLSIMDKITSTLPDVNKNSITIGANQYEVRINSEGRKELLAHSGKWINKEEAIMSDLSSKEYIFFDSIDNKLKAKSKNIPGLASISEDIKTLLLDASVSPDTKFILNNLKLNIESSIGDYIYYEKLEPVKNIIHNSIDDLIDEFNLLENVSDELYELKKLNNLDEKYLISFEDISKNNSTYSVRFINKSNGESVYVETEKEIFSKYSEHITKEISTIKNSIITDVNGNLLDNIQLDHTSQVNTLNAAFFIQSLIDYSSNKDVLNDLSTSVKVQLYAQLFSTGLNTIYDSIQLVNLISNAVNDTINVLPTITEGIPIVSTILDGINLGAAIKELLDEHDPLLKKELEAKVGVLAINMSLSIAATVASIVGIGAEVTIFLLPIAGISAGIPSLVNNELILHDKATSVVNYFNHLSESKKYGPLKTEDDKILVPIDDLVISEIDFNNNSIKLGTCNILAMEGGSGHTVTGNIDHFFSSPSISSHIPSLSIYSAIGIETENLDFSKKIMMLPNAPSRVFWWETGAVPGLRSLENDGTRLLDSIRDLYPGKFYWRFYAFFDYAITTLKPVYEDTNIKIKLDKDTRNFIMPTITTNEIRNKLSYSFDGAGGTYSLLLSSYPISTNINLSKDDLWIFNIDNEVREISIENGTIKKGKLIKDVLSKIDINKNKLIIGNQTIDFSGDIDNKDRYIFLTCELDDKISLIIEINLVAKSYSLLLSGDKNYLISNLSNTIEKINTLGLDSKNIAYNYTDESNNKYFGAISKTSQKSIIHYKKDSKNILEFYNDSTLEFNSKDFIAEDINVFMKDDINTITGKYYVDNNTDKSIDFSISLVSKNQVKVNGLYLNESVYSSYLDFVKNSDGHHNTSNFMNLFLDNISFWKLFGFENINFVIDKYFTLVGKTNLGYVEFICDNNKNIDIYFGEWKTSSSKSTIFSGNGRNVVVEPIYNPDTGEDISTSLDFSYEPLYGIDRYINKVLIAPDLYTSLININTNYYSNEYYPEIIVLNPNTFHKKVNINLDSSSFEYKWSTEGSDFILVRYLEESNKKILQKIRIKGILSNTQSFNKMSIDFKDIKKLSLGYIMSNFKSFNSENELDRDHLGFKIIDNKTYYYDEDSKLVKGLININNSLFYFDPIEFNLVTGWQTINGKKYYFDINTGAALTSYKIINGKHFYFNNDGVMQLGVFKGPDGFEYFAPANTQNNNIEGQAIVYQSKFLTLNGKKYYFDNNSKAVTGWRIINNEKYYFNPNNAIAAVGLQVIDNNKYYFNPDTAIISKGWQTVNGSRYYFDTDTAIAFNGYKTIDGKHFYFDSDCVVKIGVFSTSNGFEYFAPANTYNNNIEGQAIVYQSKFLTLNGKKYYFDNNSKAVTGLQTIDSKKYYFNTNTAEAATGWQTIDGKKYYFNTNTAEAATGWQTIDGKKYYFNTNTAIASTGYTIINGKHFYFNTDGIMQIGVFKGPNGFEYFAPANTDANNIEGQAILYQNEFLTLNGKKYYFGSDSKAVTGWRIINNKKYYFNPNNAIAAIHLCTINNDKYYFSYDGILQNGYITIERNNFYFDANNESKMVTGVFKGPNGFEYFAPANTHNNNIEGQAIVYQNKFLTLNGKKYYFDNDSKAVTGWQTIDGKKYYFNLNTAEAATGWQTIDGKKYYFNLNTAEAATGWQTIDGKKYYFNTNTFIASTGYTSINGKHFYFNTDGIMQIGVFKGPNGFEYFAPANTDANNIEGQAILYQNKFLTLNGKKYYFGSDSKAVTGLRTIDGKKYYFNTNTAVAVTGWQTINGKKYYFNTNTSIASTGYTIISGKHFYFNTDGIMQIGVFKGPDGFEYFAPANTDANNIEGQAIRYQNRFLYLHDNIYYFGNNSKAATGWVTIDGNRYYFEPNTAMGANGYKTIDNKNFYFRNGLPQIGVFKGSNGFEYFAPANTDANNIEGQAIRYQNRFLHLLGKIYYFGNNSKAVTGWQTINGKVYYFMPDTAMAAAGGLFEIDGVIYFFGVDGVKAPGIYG
substance,measurement,value
Merck anti-TcdA human monoclonal antibody (actoxumab),minimal dose of antibody protecting Vero cells from TcdA-induced cell rounding,> 10 nM
